Results from patent US20240132578A1.

How the values were obtained:
[1] = target: HIV-1 92RW020 Env (HIV-1); test: cell-based or functional assay
[2] = target: HIV-1 Env of isolate 92UG031 (pseudovirus) (HIV-1); test: cell-based or functional assay
[3] = target: HIV-1 Env of isolate 92UG037 (pseudovirus) (HIV-1); test: cell-based or functional assay
[4] = target: HIV-1 Env of isolate 92WR020 (pseudovirus) (HIV-1); test: cell-based or functional assay
[5] = target: HIV-1 Env of isolate 92WR021 (pseudovirus) (HIV-1); test: cell-based or functional assay
[6] = target: HIV-1 Env of isolate 92WR024 (pseudovirus) (HIV-1); test: cell-based or functional assay
[7] = target: HIV-1 Env of isolate 93UG077 (pseudovirus) (HIV-1); test: cell-based or functional assay
[8] = target: HIV-1 Env of isolate 93WR029 (pseudovirus) (HIV-1); test: cell-based or functional assay
[9] = target: HIV-1 Env of isolate 94UG103 (pseudovirus) (HIV-1); test: cell-based or functional assay
[10] = target: HIV-1 Env of isolate MGRM-AE-004 (pseudovirus) (HIV-1); test: cell-based or functional assay
[11] = target: HIV-1 Env of isolate MGRM-AE-005 (pseudovirus) (HIV-1); test: cell-based or functional assay
[12] = target: HIV-1 Env of isolate MGRM-AE-006 (pseudovirus) (HIV-1); test: cell-based or functional assay
[13] = target: HIV-1 Env of isolate MGRM-G-017 (subtype G) (HIV-1); test: cell-based or functional assay
[14] = target: HIV-1 Env of isolate 93IN905 (HIV-1); test: cell-based or functional assay
[15] = target: HIV-1 Env of isolate 93MW959 (HIV-1); test: cell-based or functional assay
[16] = target: HIV-1 Env of isolate 97ZA012 (HIV-1); test: cell-based or functional assay
[17] = target: HIV-1 Env of isolate 98IN022 (HIV-1); test: cell-based or functional assay
[18] = target: HIV-1 Env of isolate MGRM-Chronic-B-024 (HIV-1); test: cell-based or functional assay
[19] = target: HIV-1 Env of isolate NL43 (HIV-1); test: cell-based or functional assay
[20] = target: HIV-1 Env of isolate PVO.4 (HIV-1); test: cell-based or functional assay
[21] = target: HIV-1 Env of isolate QH0692.42 (HIV-1); test: cell-based or functional assay
[22] = target: HIV-1 Env of isolate SC422661.8 (HIV-1); test: cell-based or functional assay
[23] = target: HIV-1 Env of isolate THR0.18 (HIV-1); test: cell-based or functional assay
[24] = target: HIV-1 Env of isolate TRJ04551.58 (HIV-1); test: cell-based or functional assay
[25] = target: HIV-1 Env of isolate TRO.11 (HIV-1); test: cell-based or functional assay
[26] = target: HIV-1 Env of isolate VLGCB3 (HIV-1); test: cell-based or functional assay
[27] = target: HIV-1 Env of isolate JRCSF (HIV-1) (UniProt P20871); test: cell-based or functional assay
[28] = target: HIV-1 Env of isolate MGRM-Chronic-B-010 (HIV-1); test: cell-based or functional assay
[29] = target: HIV-1 Env of isolate MGRM-Chronic-B-011 (HIV-1); test: cell-based or functional assay
[30] = target: HIV-1 Env of isolate MGRM-Chronic-B-012 (HIV-1); test: cell-based or functional assay
[31] = target: HIV-1 Env of isolate MGRM-Chronic-B-017 (HIV-1); test: cell-based or functional assay
[32] = target: HIV-1 Env of isolate MGRM-Chronic-B-018 (HIV-1); test: cell-based or functional assay
[33] = target: HIV-1 Env of isolate MGRM-Chronic-B-020 (HIV-1); test: cell-based or functional assay
[34] = target: HIV-1 Env of isolate MGRM-Chronic-B-023 (HIV-1); test: cell-based or functional assay
[35] = target: HIV-1 Env of isolate SF162 (HIV-1) (UniProt P19550); test: cell-based or functional assay
[36] = target: WT JR-FL gp120 (HIV-1 JR-FL); test: ELISA, antigen-coated wells, mAb titrated; EC50 by nonlinear regression

Chain of 4993_K13 (PGT-141) (antibody) (VH): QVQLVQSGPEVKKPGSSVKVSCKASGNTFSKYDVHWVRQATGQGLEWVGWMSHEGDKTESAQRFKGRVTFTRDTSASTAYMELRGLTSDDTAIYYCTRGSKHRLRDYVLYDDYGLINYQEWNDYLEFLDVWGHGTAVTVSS
Chain of 4993_K13 (PGT-141) (antibody) (VL): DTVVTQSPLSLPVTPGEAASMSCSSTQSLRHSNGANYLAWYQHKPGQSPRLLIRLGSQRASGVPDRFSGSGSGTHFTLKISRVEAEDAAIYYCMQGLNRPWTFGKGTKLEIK
Chain of 4980_N08 (PGT-143) (antibody) (VH): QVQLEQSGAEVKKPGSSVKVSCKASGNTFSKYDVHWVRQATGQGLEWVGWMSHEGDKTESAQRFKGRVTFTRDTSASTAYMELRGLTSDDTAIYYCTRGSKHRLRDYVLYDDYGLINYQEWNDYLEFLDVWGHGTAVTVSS
Chain of 4980_N08 (PGT-143) (antibody) (VL): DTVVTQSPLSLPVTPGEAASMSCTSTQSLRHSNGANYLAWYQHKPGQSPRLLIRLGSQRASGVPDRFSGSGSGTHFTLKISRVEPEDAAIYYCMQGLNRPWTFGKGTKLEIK

4980_N08 (PGT-143) (antibody) was tested, and the IC50, pseudovirus neutralization [1] was greater than 10 µg/mL, the IC50 (µg/mL), single-round pseudovirus neutralization [2] was 0.095 µg/mL and the IC50 (µg/mL), single-round pseudovirus neutralization [3] was 0.854 µg/mL. For the same substance, the IC50 (µg/mL), single-round pseudovirus neutralization [4] was greater than 50 µg/mL, the IC50 (µg/mL), single-round pseudovirus neutralization [5] was greater than 50 µg/mL and the IC50 (µg/mL), single-round pseudovirus neutralization [6] was 0.122 µg/mL. It also gave an IC50 (µg/mL), single-round pseudovirus neutralization [7] greater than 50 µg/mL, an IC50 (µg/mL), single-round pseudovirus neutralization [8] of 0.053 µg/mL and an IC50 (µg/mL), single-round pseudovirus neutralization [9] greater than 50 µg/mL. It also gave an IC50 (µg/mL), single-round pseudovirus neutralization [10] of 0.002 µg/mL, an IC50 (µg/mL), single-round pseudovirus neutralization [11] greater than 50 µg/mL and an IC50 (µg/mL), single-round pseudovirus neutralization [12] greater than 50 µg/mL. It also gave an IC50 (µg/mL), pseudovirus neutralization [13] of 0.107 µg/mL.

PGV04 (antibody) showed an IC50 (µg/mL), pseudovirus neutralization [14] of 0.332 µg/mL, an IC50 (µg/mL), pseudovirus neutralization [15] greater than 50 µg/mL and an IC50 (µg/mL), pseudovirus neutralization [16] of 0.041 µg/mL. For the same substance, the IC50 (µg/mL), pseudovirus neutralization [17] was 5.69 µg/mL, the IC50 (µg/mL), pseudovirus neutralization [10] was 0.183 µg/mL and the IC50 (µg/mL), pseudovirus neutralization [11] was 0.051 µg/mL. For the same substance, the IC50 (µg/mL), pseudovirus neutralization [12] was greater than 50 µg/mL, the IC50 (µg/mL), pseudovirus neutralization [18] was 2.52 µg/mL and the IC50 (µg/mL), pseudovirus neutralization [13] was 0.065 µg/mL. The IC50 (µg/mL), pseudovirus neutralization [19] was 0.028 µg/mL, the IC50 (µg/mL), pseudovirus neutralization [20] was 0.454 µg/mL and the IC50 (µg/mL), pseudovirus neutralization [21] was 1.9 µg/mL. The IC50 (µg/mL), pseudovirus neutralization [22] was 0.11 µg/mL, the IC50 (µg/mL), pseudovirus neutralization [23] was greater than 50 µg/mL and the IC50 (µg/mL), pseudovirus neutralization [24] was 0.028 µg/mL. For the same substance, the IC50 (µg/mL), pseudovirus neutralization [25] was 0.121 µg/mL and the IC50 (µg/mL), pseudovirus neutralization [26] was 0.045 µg/mL.

Substance 4993_K13 (PGT-141) (antibody) has an IC50, pseudovirus neutralization [1] greater than 10 µg/mL, an IC50 (µg/mL), single-round pseudovirus neutralization [2] of 0.093 µg/mL and an IC50 (µg/mL), single-round pseudovirus neutralization [3] of 1.28 µg/mL. The IC50 (µg/mL), single-round pseudovirus neutralization [4] was greater than 50 µg/mL, the IC50 (µg/mL), single-round pseudovirus neutralization [5] was greater than 50 µg/mL and the IC50 (µg/mL), single-round pseudovirus neutralization [6] was 0.175 µg/mL. For the same substance, the IC50 (µg/mL), single-round pseudovirus neutralization [7] was greater than 50 µg/mL, the IC50 (µg/mL), single-round pseudovirus neutralization [8] was 0.019 µg/mL and the IC50 (µg/mL), single-round pseudovirus neutralization [9] was greater than 50 µg/mL. For the same substance, the IC50 (µg/mL), single-round pseudovirus neutralization [10] was greater than 50 µg/mL, the IC50 (µg/mL), single-round pseudovirus neutralization [11] was greater than 50 µg/mL and the IC50 (µg/mL), single-round pseudovirus neutralization [12] was greater than 50 µg/mL. It also gave an IC50 (µg/mL), pseudovirus neutralization [13] of 0.164 µg/mL.

5345_I01 (PGT-137) (antibody) was tested, and the IC50 (µg/mL), pseudovirus neutralization [2] was greater than 50 µg/mL, the IC50 (µg/mL), pseudovirus neutralization [3] was greater than 50 µg/mL and the IC50 (µg/mL), pseudovirus neutralization [4] was 0.005 µg/mL. For the same substance, the IC50 (µg/mL), pseudovirus neutralization [5] was 3.52 µg/mL, the IC50 (µg/mL), pseudovirus neutralization [6] was greater than 50 µg/mL and the IC50 (µg/mL), pseudovirus neutralization [14] was 0.042 µg/mL. It also gave an IC50 (µg/mL), pseudovirus neutralization [15] greater than 50 µg/mL, an IC50 (µg/mL), pseudovirus neutralization [7] greater than 50 µg/mL and an IC50 (µg/mL), pseudovirus neutralization [8] greater than 50 µg/mL. The IC50 (µg/mL), pseudovirus neutralization [9] was greater than 50 µg/mL, the IC50 (µg/mL), pseudovirus neutralization [16] was greater than 50 µg/mL and the IC50 (µg/mL), pseudovirus neutralization [17] was 0.408 µg/mL. For the same substance, the IC50 (µg/mL), pseudovirus neutralization [27] was greater than 50 µg/mL, the IC50 (µg/mL), pseudovirus neutralization [28] was greater than 50 µg/mL and the IC50 (µg/mL), pseudovirus neutralization [29] was greater than 50 µg/mL. It also gave an IC50 (µg/mL), pseudovirus neutralization [30] greater than 50 µg/mL, an IC50 (µg/mL), pseudovirus neutralization [31] greater than 50 µg/mL and an IC50 (µg/mL), pseudovirus neutralization [32] greater than 50 µg/mL. It also gave an IC50 (µg/mL), pseudovirus neutralization [33] of 32.9 µg/mL, an IC50 (µg/mL), pseudovirus neutralization [34] greater than 50 µg/mL and an IC50 (µg/mL), pseudovirus neutralization [18] greater than 50 µg/mL. The IC50 (µg/mL), pseudovirus neutralization [19] was 17.4 µg/mL, the IC50 (µg/mL), pseudovirus neutralization [21] was greater than 50 µg/mL and the IC50 (µg/mL), pseudovirus neutralization [22] was greater than 50 µg/mL. The IC50 (µg/mL), pseudovirus neutralization [35] was 3.41 µg/mL, the IC50 (µg/mL), pseudovirus neutralization [23] was greater than 50 µg/mL and the IC50 (µg/mL), pseudovirus neutralization [24] was greater than 50 µg/mL. For the same substance, the IC50 (µg/mL), pseudovirus neutralization [25] was 9.35 µg/mL, the IC50 (µg/mL), pseudovirus neutralization [26] was 3.36 µg/mL and the EC50 [36] was 0.1 µg/mL.
